The data set can be described thus: self-splicing fitness, log relative to wild type (ln ratio); higher = more splicing; Tetrahymena group I intron in knt gene, E. coli kanamycin selection, DiMSum; sequences stand for … in CUCUCU…GGAGGGAAAAGUUAUCAGGCAUGCACCUGGUAGCUAGUCUUUAAACCAAUAGAUUGCAUCGGUUUAAAAGGCAAGACCGUCAAAUUGCGGGAAAGGGGUCAACAGCCGUUCAGUACCAAGUCUCAGGGGAAACUUUGAGAUGGCCUUGCAAAGGGUAUGGUAAUAAGCUGACGGACAUGGUCCUAACCACGCAGCCAAGUCCUAAGUCAACAGAUCUUCUGUUGAUAUGGAUGCAGUUCACAGACUAAAUGUCGGUCGGGGAAGAUGUAUUCUUCUCAUAAGAUAUAGUCGGACCUCUCCUUAAUGGGAGCUAGCGGAUGAAGUGAUGCAACACUGGAGCCGCUGGGAACUAAUUUGUAUGCGAAAGUAUAUUGAUUAGUUUUGGAGUACUCGUGGUCG
Summed up: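 Pooled colonies went to amplicon sequencing on an Illumina HiSeq 2500 after six replicate transformations. The plates were LB agar with 100 μg/mL carbenicillin, 50 μM IPTG and 0.2% rhamnose, with or without 25 μg/mL kanamycin, incubated overnight at 37°C or 30°C. The E. coli BL21(DE3) library had all eight P1ex-region intron nucleotides randomised, the intron placed in the knt kanamycin-resistance gene on pET-22b(+). DiMSum fitness is the error-weighted combination of replicate fold changes, kanamycin against none, normalised to wild type.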

± gives the uncertainty stated by the source.

With GAGCAGCAAUAUUACGUCAA, the “self-splicing fitness (ln)” value is, setting by setting: (30 °C) -1.14 ± 0.24; (37 °C) -2.12 ± 0.25. The matching figures for AUAUAGCAAUAUUACGCCCA: -1.31 ± 0.3 and -0.688 ± 0.3. For UCCAAGCAAUAUUACGUAUC the same measures were -4.43 ± 0.27 and -1.93 ± 0.16. AUUGAGCAAUAUUACGUUUG: the “self-splicing fitness (ln)” value (37 °C) is -1.91 ± 0.26. GCACAGCAAUAUUACGUAUA: the “self-splicing fitness (ln)” value runs as follows: (30 °C) -0.999 ± 0.06; (37 °C) -0.413 ± 0.07.

Take UUUGAGCAAUAUUACGCCUC: the “self-splicing fitness (ln)” value (37 °C) is -0.879 ± 0.39. On to CUCCAGCAAUAUUACGGGAU, for which the “self-splicing fitness (ln)” value (30 °C) was -2.92 ± 0.11 and the “self-splicing fitness (ln)” value (37 °C) was -1.18 ± 0.1. The matching figures for GAGUAGCAAUAUUACGAGUG: -2.34 ± 0.091 and -0.452 ± 0.11. For GACUAGCAAUAUUACGCGGU the same measures were -3.62 ± 0.17 and -3.27 ± 0.28. The matching figures for ACUGAGCAAUAUUACGUCAC: -3.38 ± 0.17 and -2.75 ± 0.21. As to AAACAGCAAUAUUACGAAGA, the “self-splicing fitness (ln)” value by setting is: (30 °C) -2.29 ± 0.12; (37 °C) -1.55 ± 0.11. The matching figures for AUCAAGCAAUAUUACGCAGG: -2.34 ± 0.2 and -1.8 ± 0.2. Consider GCGUAGCAAUAUUACGGGCC, for which, under “30 °C”, the “self-splicing fitness (ln)” value was -3.1 ± 0.32. As to CAUAAGCAAUAUUACGCGCU, the “self-splicing fitness (ln)” value (30 °C) is -3.52 ± 0.28 and the “self-splicing fitness (ln)” value (37 °C) is -2.34 ± 0.2. The matching figures for GUUCAGCAAUAUUACGUCCA: -0.981 ± 0.17 and -1.05 ± 0.21. For the sequence CUCUAGCAAUAUUACGACUA, the “self-splicing fitness (ln)” value (37 °C) is -1.71 ± 0.28.

GAUAAGCAAUAUUACGAUUU: the “self-splicing fitness (ln)” value runs as follows: (30 °C) -0.385 ± 0.083; (37 °C) 1.36 ± 0.12. For CGCCAGCAAUAUUACGAUAC the same measures were -3.42 ± 0.22 and -3.13 ± 0.24.

With UGACAGCAAUAUUACGCCUG, the “self-splicing fitness (ln)” value is -0.292 ± 0.1 (30 °C) and 0.595 ± 0.14 (37 °C). As for CGACAGCAAUAUUACGUAAA, the “self-splicing fitness (ln)” value reads like this: (30 °C) -3.02 ± 0.15; (37 °C) -2.28 ± 0.21.

Consider GCCGAGCAAUAUUACGCCGC, for which, under “30 °C”, the “self-splicing fitness (ln)” value was -3.95 ± 0.43. In the case of GCAGAGCAAUAUUACGCGAA, the “self-splicing fitness (ln)” value was -4.38 ± 0.24 (30 °C) and -3.44 ± 0.21 (37 °C). For AUCCAGCAAUAUUACGCGCU the same measures were -3.57 ± 0.22 and -2.37 ± 0.22.

In the case of AUGCAGCAAUAUUACGCGUC, the “self-splicing fitness (ln)” value was -3.6 ± 0.2 (30 °C) and -3.05 ± 0.16 (37 °C). For UCACAGCAAUAUUACGUGGG the same measures were -3.34 ± 0.12 and -2.68 ± 0.12. The matching figures for GAUUAGCAAUAUUACGAGUG: -1.25 ± 0.094 and -0.616 ± 0.1. The matching figures for GUAUAGCAAUAUUACGGGCA: -1.34 ± 0.24 and -1.35 ± 0.25. Consider CCUAAGCAAUAUUACGGCGA, for which the “self-splicing fitness (ln)” value reads like this: (30 °C) -2.84 ± 0.31; (37 °C) -1.95 ± 0.27. For ACUCAGCAAUAUUACGGGAA the same measures were -0.98 ± 0.088 and -0.568 ± 0.095. The matching figures for CCUGAGCAAUAUUACGCACG: -3.16 ± 0.47 and -2.09 ± 0.37. For UUGUAGCAAUAUUACGAUUU the same measures were -3.15 ± 0.25 and -1.91 ± 0.24.

With CCGCAGCAAUAUUACGUAGU, the “self-splicing fitness (ln)” value is -3.89 ± 0.14 (30 °C) and -2.88 ± 0.18 (37 °C). For ACGGAGCAAUAUUACGACAC the same measures were -4.35 ± 0.42 and -1.94 ± 0.37. For ACGAAGCAAUAUUACGCAGA the same measures were -1.42 ± 0.12 and -1.1 ± 0.14. Consider CUUGAGCAAUAUUACGUUGG, for which the “self-splicing fitness (ln)” value (30 °C) was -2.66 ± 0.28 and the “self-splicing fitness (ln)” value (37 °C) is -0.601 ± 0.18. For GCUGAGCAAUAUUACGACUG the same measures were -2.16 ± 0.35 and -0.83 ± 0.38. For CUAAAGCAAUAUUACGCUGU the same measures were -3.72 ± 0.29 and -2.39 ± 0.21.

In the case of CAUAAGCAAUAUUACGUAGC, the “self-splicing fitness (ln)” value was -3.15 ± 0.17 (30 °C) and -2.96 ± 0.2 (37 °C).

Turning to GUCAAGCAAUAUUACGGAGC, the “self-splicing fitness (ln)” value (30 °C) is -2.47 ± 0.46.

AUCCAGCAAUAUUACGUUGU: the “self-splicing fitness (ln)” value by setting is: (30 °C) -3.92 ± 0.12; (37 °C) -2.09 ± 0.093. As for ACAGAGCAAUAUUACGCACC, the “self-splicing fitness (ln)” value (30 °C) is -3.6 ± 0.47 and the “self-splicing fitness (ln)” value (37 °C) is -2.04 ± 0.38. The matching figures for AUCUAGCAAUAUUACGAUUA: -0.971 ± 0.11 and -0.836 ± 0.11. The matching figures for AACAAGCAAUAUUACGCCCG: -0.206 ± 0.11 and -0.347 ± 0.17. The matching figures for CUUAAGCAAUAUUACGGGGA: -3.46 ± 0.29 and -2.16 ± 0.18. CAUAAGCAAUAUUACGUCGC: the “self-splicing fitness (ln)” value (30 °C) is -4.06 ± 0.18 and the “self-splicing fitness (ln)” value (37 °C) was -3.2 ± 0.17.

Take CGCUAGCAAUAUUACGCGAU: the “self-splicing fitness (ln)” value was -3.59 ± 0.19 (30 °C) and -2.25 ± 0.2 (37 °C). Turning to CAUGAGCAAUAUUACGUCGA, the “self-splicing fitness (ln)” value (30 °C) was -2.57 ± 0.33.

Take GCAGAGCAAUAUUACGUGGU: the “self-splicing fitness (ln)” value runs as follows: (30 °C) -3.94 ± 0.17; (37 °C) -2.27 ± 0.18.

Take CCGGAGCAAUAUUACGCGUG: the “self-splicing fitness (ln)” value was -1.09 ± 0.14 (30 °C) and -0.996 ± 0.16 (37 °C). For GGCGAGCAAUAUUACGUGUG the same measures were -1.13 ± 0.1 and -0.745 ± 0.14. For UUUAAGCAAUAUUACGAUAU the same measures were -2.91 ± 0.14 and -1.52 ± 0.14. On to UGCAAGCAAUAUUACGAGUA, for which the “self-splicing fitness (ln)” value was -0.888 ± 0.083 (30 °C) and 0.181 ± 0.083 (37 °C). For CCCUAGCAAUAUUACGCCUU the same measures were -3.23 ± 0.16 and -3.08 ± 0.4. The matching figures for AGGAAGCAAUAUUACGACUC: -0.644 ± 0.3 and -0.886 ± 0.45.

On to GCGUAGCAAUAUUACGUGUU, for which the “self-splicing fitness (ln)” value is -3.07 ± 0.21 (30 °C) and -0.761 ± 0.12 (37 °C). The matching figures for AACAAGCAAUAUUACGAUUC: -1.61 ± 0.11 and -0.551 ± 0.12. For CUGAAGCAAUAUUACGCGCA the same measures were -3.11 ± 0.23 and -2.19 ± 0.36.

For CCCGAGCAAUAUUACGUCUC, the “self-splicing fitness (ln)” value (37 °C) was -2.22 ± 0.29. In the case of UGCAAGCAAUAUUACGUAUG, the “self-splicing fitness (ln)” value is -3.05 ± 0.16 (30 °C) and -0.321 ± 0.1 (37 °C). For ACGCAGCAAUAUUACGCAUA the same measures were -2.18 ± 0.13 and -0.994 ± 0.12. For CUAUAGCAAUAUUACGCAUU the same measures were -5.27 ± 0.38 and -2.95 ± 0.31. For CACCAGCAAUAUUACGACGC, the “self-splicing fitness (ln)” value runs as follows: (30 °C) -3.22 ± 0.19; (37 °C) -1.39 ± 0.16. Consider GUGGAGCAAUAUUACGGGGC, for which the “self-splicing fitness (ln)” value reads like this: (30 °C) -3.48 ± 0.48; (37 °C) -1.93 ± 0.31. For AGGUAGCAAUAUUACGAGUU the same measures were -2.033 ± 0.015 and -0.955 ± 0.033. The matching figures for CUUGAGCAAUAUUACGUGCC: -2.26 ± 0.17 and -2.75 ± 0.38. The matching figures for AGAUAGCAAUAUUACGAUUC: -1.7 ± 0.12 and -0.442 ± 0.16.

For the sequence UUUUAGCAAUAUUACGUAUA, the “self-splicing fitness (ln)” value (30 °C) was -2.59 ± 0.42. In the case of GCAGAGCAAUAUUACGGGCU, the “self-splicing fitness (ln)” value reads like this: (30 °C) -1.78 ± 0.3; (37 °C) -2.03 ± 0.39. The matching figures for ACUAAGCAAUAUUACGGCUC: -0.0701 ± 0.093 and 0.329 ± 0.11. On to CGACAGCAAUAUUACGCAUC, for which the “self-splicing fitness (ln)” value is, setting by setting: (30 °C) -3.1 ± 0.14; (37 °C) -2.75 ± 0.25. Consider CCAAAGCAAUAUUACGUGGG, for which the “self-splicing fitness (ln)” value is, setting by setting: (30 °C) -2.85 ± 0.12; (37 °C) -2.9 ± 0.17. The matching figures for CGUAAGCAAUAUUACGGGUC: -4.24 ± 0.28 and -2.45 ± 0.2. The matching figures for GUAAAGCAAUAUUACGAGAC: -2.46 ± 0.22 and -1.08 ± 0.29. For GAGUAGCAAUAUUACGAUUA the same measures were -0.577 ± 0.092 and -0.317 ± 0.081.

Regarding UCCGAGCAAUAUUACGUUAC, the “self-splicing fitness (ln)” value (30 °C) is -3.25 ± 0.43 and the “self-splicing fitness (ln)” value (37 °C) is -1.63 ± 0.43.

On to CCAAAGCAAUAUUACGCUCC, for which the “self-splicing fitness (ln)” value by setting is: (30 °C) -1.01 ± 0.2; (37 °C) -1.74 ± 0.36. Consider CAGCAGCAAUAUUACGGACA, for which the “self-splicing fitness (ln)” value is, setting by setting: (30 °C) -2.86 ± 0.17; (37 °C) -2.28 ± 0.17.

As to ACCAAGCAAUAUUACGAGGG, the “self-splicing fitness (ln)” value (30 °C) was -2.88 ± 0.15 and the “self-splicing fitness (ln)” value (37 °C) was -1.49 ± 0.12.

The record behind these values is the supplement of paper PMC7877785.
